Measured values reported in article PMC4374719, “Herpesviral G Protein-Coupled Receptors Activate NFAT to Induce Tumor Formation via Inhibiting the SERCA Calcium ATPase” (PLoS Pathogens, 2015).

Molecular target: T1, KSHV G protein-coupled receptor (kGPCR), stably expressed in HUVEC (Kaposi's sarcoma-associated herpesvirus …, UniProt Q98146 1-342)
T1 construct: GPCR homologue of Kaposi's sarcoma-associated herpesvirus (kGPCR); Probably HA-tagged like the other constructs, but no tag and no primary antibody is named for the proximity ligation assay; also called HUVEC/kGPCR
T1 sequence: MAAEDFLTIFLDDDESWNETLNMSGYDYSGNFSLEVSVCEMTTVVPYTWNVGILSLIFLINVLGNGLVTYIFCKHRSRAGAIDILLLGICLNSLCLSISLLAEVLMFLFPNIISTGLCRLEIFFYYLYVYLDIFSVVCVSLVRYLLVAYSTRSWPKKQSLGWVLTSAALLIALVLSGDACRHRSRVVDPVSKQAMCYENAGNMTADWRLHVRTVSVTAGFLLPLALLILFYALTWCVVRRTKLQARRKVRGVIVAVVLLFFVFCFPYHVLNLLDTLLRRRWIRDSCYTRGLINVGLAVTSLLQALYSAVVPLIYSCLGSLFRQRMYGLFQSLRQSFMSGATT
Assay: proximity ligation; Duolink in situ kit on fixed HUVEC-Vector or HUVEC-kGPCR stable cells; spots counted in more than 100 cells of each group
Conditions: partners not purified

B1: sarco/endoplasmic reticulum calcium ATPase 2 (SERCA2), endogenous in HUVEC (enzyme, human (endogenous in HUVEC), UniProt P16615 1-1042, looked up)
chain: MENAHTKTVEEVLGHFGVNESTGLSLEQVKKLKERWGSNELPAEEGKTLLELVIEQFEDLLVRILLLAACISFVLAWFEEGEETITAFVEPFVILLILVANAIVGVWQERNAENAIEALKEYEPEMGKVYRQDRKSVQRIKAKDIVPGDIVEIAVGDKVPADIRLTSIKSTTLRVDQSILTGESVSVIKHTDPVPDPRAVNQDKKNMLFSGTNIAAGKAMGVVVATGVNTEIGKIRDEMVATEQERTPLQQKLDEFGEQLSKVISLICIAVWIINIGHFNDPVHGGSWIRGAIYYFKIAVALAVAAIPEGLPAVITTCLALGTRRMAKKNAIVRSLPSVETLGCTSVICSDKTGTLTTNQMSVCRMFILDRVEGDTCSLNEFTITGSTYAPIGEVHKDDKPVNCHQYDGLVELATICALCNDSALDYNEAKGVYEKVGEATETALTCLVEKMNVFDTELKGLSKIERANACNSVIKQLMKKEFTLEFSRDRKSMSVYCTPNKPSRTSMSKMFVKGAPEGVIDRCTHIRVGSTKVPMTSGVKQKIMSVIREWGSGSDTLRCLALATHDNPLRREEMHLEDSANFIKYETNLTFVGCVGMLDPPRIEVASSVKLCRQAGIRVIMITGDNKGTAVAICRRIGIFGQDEDVTSKAFTGREFDELNPSAQRDACLNARCFARVEPSHKSKIVEFLQSFDEITAMTGDGVNDAPALKKAEIGIAMGSGTAVAKTASEMVLADDNFSTIVAAVEEGRAIYNNMKQFIRYLISSNVGEVVCIFLTAALGFPEALIPVQLLWVNLVTDGLPATALGFNPPDLDIMNKPPRNPKEPLISGWLFFRYLAIGCYVGAATVGAAAWWFIAADGGPRVSFYQLSHFLQCKEDNPDFEGVDCAIFESPYPMTMALSVLVTIEMCNALNSLSENQSLLRMPPWENIWLVGSICLSMSLHFLILYVEPLPLIFQITPLNVTQWLMVLKISLPVILMDETLKFVARNYLEPGKECVQPATKSCSFSACTDGISWPFVLLIMPLVIWVYSTDTNFSDMFWS
notes: SERCA2 of human umbilical vein endothelial cells; source: endogenous, HUVEC, in fixed cells
- fold of proximity ligation fluorescent spots over control HUVEC cells: > 10 fold
